Tests used:
[1] = molecular target: T1, Ccr4(110-837)-Caf1(146-433) complex (S. cerevisiae, UniProt P31384 110-837; P39008 146-433); experiment: SEC; reconstitution: purified Not1(754-1000) mixed with Ccr4(110-837)-Caf1(146-433) in equimolar amounts; Superdex200 16/60, 20 mM Tris pH 7.5, 250 mM NaCl, 1 mM DTT; settings: both partners purified
T1 construct: The complex is His-tagged; also called core yeast Ccr4-Caf1 nucleases; source: Trichoplusia ni Hi5 insect cells (pFastBac DUAL), purified (IMAC, heparin, SEC)
T1 sequence (looked up) 1: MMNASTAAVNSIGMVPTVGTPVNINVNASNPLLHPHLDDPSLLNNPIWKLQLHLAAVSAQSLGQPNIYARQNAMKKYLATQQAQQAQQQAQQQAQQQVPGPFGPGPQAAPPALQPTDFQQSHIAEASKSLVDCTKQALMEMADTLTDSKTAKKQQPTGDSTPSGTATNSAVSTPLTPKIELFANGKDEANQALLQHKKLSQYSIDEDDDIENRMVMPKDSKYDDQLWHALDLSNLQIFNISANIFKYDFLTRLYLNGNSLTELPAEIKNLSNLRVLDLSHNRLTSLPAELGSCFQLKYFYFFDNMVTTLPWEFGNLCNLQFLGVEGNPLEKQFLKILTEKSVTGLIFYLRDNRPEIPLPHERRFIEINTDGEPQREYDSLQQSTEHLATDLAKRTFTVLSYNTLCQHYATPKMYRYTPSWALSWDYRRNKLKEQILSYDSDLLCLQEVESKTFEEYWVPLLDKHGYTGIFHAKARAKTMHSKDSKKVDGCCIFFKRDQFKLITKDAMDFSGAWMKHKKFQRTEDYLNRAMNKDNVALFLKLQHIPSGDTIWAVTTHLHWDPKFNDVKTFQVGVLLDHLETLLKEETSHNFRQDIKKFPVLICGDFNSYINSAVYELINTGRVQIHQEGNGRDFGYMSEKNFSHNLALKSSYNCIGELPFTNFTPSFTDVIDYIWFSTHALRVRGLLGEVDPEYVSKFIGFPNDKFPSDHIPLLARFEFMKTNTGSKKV
T1 sequence (looked up) 2: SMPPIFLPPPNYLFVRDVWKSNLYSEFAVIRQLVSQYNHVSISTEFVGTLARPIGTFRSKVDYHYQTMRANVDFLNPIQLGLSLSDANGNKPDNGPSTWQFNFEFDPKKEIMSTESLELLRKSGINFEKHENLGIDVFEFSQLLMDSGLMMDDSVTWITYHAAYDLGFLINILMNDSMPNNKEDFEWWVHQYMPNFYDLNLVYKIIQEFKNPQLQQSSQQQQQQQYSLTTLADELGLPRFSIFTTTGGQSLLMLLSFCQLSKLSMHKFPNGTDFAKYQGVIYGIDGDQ

[2] = molecular target: the molecule itself; experiment: cryo-EM structure; substrate-free Pan2cat-Pan3Δ(1-162); Volta phase plate; nominal global resolution about 4.5 Å
[3] = molecular target: the molecule itself; experiment: cryo-EM structure; Pan2cat-Pan3 with 90A RNA and three Pab1, reconstituted as for SEC and purified on Superose 6; overall nominal resolution 4.8 Å, focused maps 4.7 and 4.5 Å

B1: Not1(754-1000) (domain or fragment, S. cerevisiae, UniProt P25655 754-1000, looked up)
chain: RSRPVQEMIPLKFFAVDEVSCQINQEGAPKDVVEKVLFVLNNVTLANLNNKVDELKKSLTPNYFSWFSTYLVTQRAKTEPNYHDLYSKVIVAMGSGLLHQFMVNVTLRQLFVLLSTKDEQAIDKKHLKNLASWLGCITLALNKPIKHKNIAFREMLIEAYKENRLEIVVPFVTKILQRASESKIFKPPNPWTVGILKLLIELNEKANWKLSLTFEVEVLLKSFNLTTKSLKPSNFINTPEVIETLSG
notes: source: E. coli BL21 DE3, purified (IMAC, tag cleavage, heparin, SEC); not shown: SUMO, N-terminal, cleaved; His tag, N-terminal, cleaved
[1]
  binding result: binds

B2: Pan3Δ(1-162) (domain or fragment, S. cerevisiae, UniProt P36102 163-679, looked up)
chain: SIHTNANAHSFPFPSIANSGGININATDDNSNNMSMANNVPPPMQPPPIESSNLKYPRIYPPPHSLLQYHLYAPEQPSSLKSLLKPNERSADQLFIPNNIREDLTKKNLSILQVFPSSGKVIPSIVQDYFNLVPLNFNNNDFLNKTTLFKVFSNYDGKAYVLKRLPNIDKSMNPNKISKIYQIWSKINCTNLIKFRDIFQTTKFGDLSICLVFDYYPNSLSLYDYHFVNFPKFPITNNYLWIYLVQLTNVINSIHSQNLSIGNTLNWRKVLITGDPGRIKLSHCNFMDLLFNDDTDTVVSSGGSTIEGQQQLDYKYLGELLFNLSINIENSNNNTAPKEYRLEEITPQSIDDMRQIDDKFKDVLKYLISDNGDSKKSIHDLTSHFYDKMFMVLESSQTYTEYMESVLSRELENGRLFRLVNKLNCIFGRIESRIDINWSESGTKFPIILFYDYVFHQVDSNGKPIMDLTHVLRCLNKLDAGIQEKLMLVTPDELNCIIISYKELKDLIESTFRSITQ
notes: Pan3, S. cerevisiae, lacking residues 1-162; Pan3 chain of the substrate-free Pan2cat-Pan3Δ(1-162) cryo-EM sample; also called Pan3ΔN; source: Trichoplusia ni Hi5 insect cells, co-expressed with Pan2cat, purified as a complex
[2]
  stoichiometry N: 2

B3: Pan3 (S. cerevisiae, C-terminal deca-histidine tag) (natural protein, UniProt P36102 1-679, looked up)
chain: MDKINPDWAKDIPCRNITIYGYCKKEKEGCPFKHSDNTTATTINDVPPPIDVGEATTPTMTSVPKFNAKVSASFTPMTVGSDSLTTVTNTTSAATNATGNIAMAATSATASTVNPMINPIVNSSLVNNNNNNSNISISIPTTASSSNYDPFNAPIFTPSSTSSIHTNANAHSFPFPSIANSGGININATDDNSNNMSMANNVPPPMQPPPIESSNLKYPRIYPPPHSLLQYHLYAPEQPSSLKSLLKPNERSADQLFIPNNIREDLTKKNLSILQVFPSSGKVIPSIVQDYFNLVPLNFNNNDFLNKTTLFKVFSNYDGKAYVLKRLPNIDKSMNPNKISKIYQIWSKINCTNLIKFRDIFQTTKFGDLSICLVFDYYPNSLSLYDYHFVNFPKFPITNNYLWIYLVQLTNVINSIHSQNLSIGNTLNWRKVLITGDPGRIKLSHCNFMDLLFNDDTDTVVSSGGSTIEGQQQLDYKYLGELLFNLSINIENSNNNTAPKEYRLEEITPQSIDDMRQIDDKFKDVLKYLISDNGDSKKSIHDLTSHFYDKMFMVLESSQTYTEYMESVLSRELENGRLFRLVNKLNCIFGRIESRIDINWSESGTKFPIILFYDYVFHQVDSNGKPIMDLTHVLRCLNKLDAGIQEKLMLVTPDELNCIIISYKELKDLIESTFRSITQ
notes: Pan3, S. cerevisiae; The Pan3 chain of m1, written alone for the pairs that touch in the structure and for co-purification; also called Pan3straight; Pan3bent; source: Trichoplusia ni Hi5 insect cells, co-expressed with Pan2, purified as a complex; not shown: His10, C-terminal, kept
[3]
  stoichiometry N: 2
